From publication PMC10978848, “Insights into the dual nature of αB-crystallin chaperone activity from the p.P39L mutant at the N-terminal region” (Scientific Reports, 2024) come the findings set out here.

The series deals with the molecule itself. In words: AUC; sedimentation velocity, 40,000 rpm, 20 °C, absorbance at 280 nm, buffer A (50 mM sodium phosphate, pH 7.4); masses from c(M) after Schuck; size of the oligomer.

B1: human αB-crystallin, wild-type (natural protein, UniProt P02511 1-175, looked up)
chain: MDIAIHHPWIRRPFFPFHSPSRLFDQFFGEHLLESDLFPTSTSLSPFYLRPPSFLRAPSWFDTGLSEMRLEKDRFSVNLDVKHFSPEELKVKVLGDVIEVHGKHEERQDEHGFISREFHRKYRIPADVDPLTITSSLSSDGVLTVNGPRKQVSGPERTIPITREEKPAVTAAPKK
notes: human αB-crystallin (CRYAB, HspB5); It names no tag; also called CRYAB; HspB5; source: E. coli, IPTG-induced, purified (anion exchange, DEAE cellulose); copies: 24
As usually defined, the stoichiometry N is the number of molecules, sites or subunits per partner or assembly. For B1, the “stoichiometry N” value came to 24 subunits.

B2: human αB-crystallin p.P39L mutant (natural protein, UniProt P02511 1-175, looked up)
chain: MDIAIHHPWIRRPFFPFHSPSRLFDQFFGEHLLESDLFLTSTSLSPFYLRPPSFLRAPSWFDTGLSEMRLEKDRFSVNLDVKHFSPEELKVKVLGDVIEVHGKHEERQDEHGFISREFHRKYRIPADVDPLTITSSLSSDGVLTVNGPRKQVSGPERTIPITREEKPAVTAAPKK
notes: human αB-crystallin (CRYAB, HspB5) with the variant p.P39L, which was found in a patient; It names no tag; also called p.P39L αB-Cry; mutant αB-Cry; source: E. coli, IPTG-induced, purified (anion exchange, DEAE cellulose); copies: 48
Turning to B2, the “stoichiometry N” value was found to be 48 subunits.
